Biological target: T1, human receptor tyrosine kinase AXL transcript variant 1 (human, UniProt P30530 26-894)
T1 construct: Overexpressed on RatI-AXL cl.2 and NIH3T3-AXL cl.7 fibroblasts (pLXSN-hAXL); endogenous on human cancer cell lines and HUVEC in the functional assays; also called hAXL; human AXL
T1 sequence: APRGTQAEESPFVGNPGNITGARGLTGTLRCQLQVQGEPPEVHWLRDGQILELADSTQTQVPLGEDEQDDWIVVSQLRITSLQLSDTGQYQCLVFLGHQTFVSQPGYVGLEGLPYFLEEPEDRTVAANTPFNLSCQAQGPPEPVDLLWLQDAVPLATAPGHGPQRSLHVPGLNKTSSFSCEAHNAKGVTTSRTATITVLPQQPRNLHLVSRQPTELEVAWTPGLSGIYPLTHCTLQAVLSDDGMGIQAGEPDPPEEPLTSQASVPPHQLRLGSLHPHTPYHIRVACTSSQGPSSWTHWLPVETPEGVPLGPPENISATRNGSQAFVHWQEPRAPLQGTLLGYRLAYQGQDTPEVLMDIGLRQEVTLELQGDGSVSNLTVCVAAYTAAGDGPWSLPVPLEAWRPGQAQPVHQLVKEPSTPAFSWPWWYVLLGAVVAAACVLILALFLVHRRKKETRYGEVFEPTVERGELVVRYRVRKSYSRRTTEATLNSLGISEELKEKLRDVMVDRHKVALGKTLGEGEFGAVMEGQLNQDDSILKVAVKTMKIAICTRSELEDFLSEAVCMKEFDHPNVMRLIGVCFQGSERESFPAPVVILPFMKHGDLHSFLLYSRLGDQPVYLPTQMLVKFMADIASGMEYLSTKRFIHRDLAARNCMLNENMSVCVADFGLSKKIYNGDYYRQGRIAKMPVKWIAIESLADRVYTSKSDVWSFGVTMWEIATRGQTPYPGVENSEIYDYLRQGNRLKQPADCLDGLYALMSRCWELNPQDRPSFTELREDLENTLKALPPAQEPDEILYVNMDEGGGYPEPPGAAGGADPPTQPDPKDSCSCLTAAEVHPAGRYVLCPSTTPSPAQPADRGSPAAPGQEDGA
Experiment: FACS Scatchard (apparent KD) on human AXL overexpressing NIH3T3 cells
Description: Human AXL overexpression NIH3T3 cells were harvested by incubation with 10 mM EDTA in PBS and resuspended at 6 million cells per ml in FACS buffer (PBS pH 7.4, 3% FCS, 0.1% NaN₃). […] Antibody binding was allowed to proceed for 2 hours on ice. Then, cells were washed twice with 250 μl FACS buffer per well, and resuspended in 200 μl of secondary antibody (anti-rat-PE; Jackson) diluted 1:50 in FACS buffer. After 45 minutes of incubation, cells were again washed twice in FACS buffer and resuspended in […] PBS for FACS analysis. Analysis was carried out on a Beckman-Coulter FACS FC500. To determine the apparent affinity constant KDapp, mean fluorescence values were plotted against the ratio of mean fluorescence and the corresponding antibody concentration ([M]).

Row | Kd | Binder
1 | 0.6 nM | ch11B7-IgG2 (antibody, V domains shown, chimeric rat/human IgG2 kappa, expressed in HEK 293 cells; also called chn11B7 IgG2) VH: EVQLQESGPGLVKPSQSLSLTCSVTGYSITSNYWGWIRKFPGDKMEWMGYITYSGSTSYNPSLKSRISITRDTSKNQFFLQLNSVTSEDTATYYCAITTFYYWGQGVMVTVSS VL: DIQMTQAPSSLPASLGDRVTITCRASQDIGNYLRWFQQKPGKSPRLMISGATNLAAGVPSRFSGSRSGSDYSLTISSLESEDMADYYCLQSKESPWTFGGGTKLELKR
2 | 0.9 nM | ch11D5-IgG2 (antibody, V domains shown, chimeric rat/human IgG2 kappa, expressed in HEK 293 cells; also called chn11D5 IgG2) VH: EVQLQESGPGLVKPSQSLSLTCSVTGYSITSNYWGWIRKFPGNKMEWIGHITNSGNTTYNPSLKSRISISRDTSRNQFFLQLNSVTTEDTATYYCAKGAFDYWGQGVMVTVSS VL: DIQMTQSPSSMSTSLGDRVTITCRASQDIGNYLSWFQQKVGKSPRRMIYGAIKLAVGVPSRFSGSRSGSDYSLTISSLESEDMAIYYCLQYIQFPLTFGSGTKLELKR
